In the supplement of paper PMC12042874:
± gives the uncertainty stated by the source.

Experiment: amyloid nucleation score (Sup35N fusion, yeast selection) (log enrichment); library NNK3; higher = more nucleation; inactive = no reads after selection
Procedure, shortened: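 Sup35N was fused to peptides of 20 random codons and expressed in psi-negative yeast, which were induced with 100 μM copper sulfate for 24 hours and then grown on medium lacking adenine and uracil for 7 days at 30°C. Plasmid inserts from input and output were sequenced on Illumina. The nucleation score is the DiMSum log enrichment of output over input reads, centred on the mode score of non-aggregating sequences. Sequences with under 100 input reads were left out, and random libraries had three technical output replicates.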

Substance | amyloid nucleation score
KQLDDPRQICIFYPT | inactive
SDWFGCVVVTLCLVNHQALS | inactive
SAGYGLPPPVEYFNWPFSC | -0.394 ± 1.9
VINRST | 0.979 ± 0.11
RIDRFCSFFNRSPSDCLLLS | inactive
IKVWRGKVG | inactive
HPMLFSFYVKGRVFLSRV | inactive
WYNDVMEVESLISYVDFFRE | inactive
YQCSASFYRTNVGPSTGHQL | 1.13 ± 0.11
VFHRSSLNSSRAGWH | inactive
AVCEMKIHCYITVPDPSRPR | inactive
RYIYPVDLYIWYNYGILLNR | 0.777 ± 0.23
VCDTM | inactive
LVLVQEKHRSRTAEFDHRLT | -0.186 ± 0.94
LLFRFMTGVVRLPRDNTYRK | inactive
SARVRAVAMFPPPALT | inactive
FSNGPSAVYYFIYLGLFNKN | 1.48 ± 0.072
NLLAMRLWQAQSMKRSLGFL | inactive
RHYKLGGSGTCDVSYGSCYD | inactive
DFRLPNSPYAHCYLMHRLII | inactive
GYLLTVLLLSMFNSFDNDWL | inactive
RIRGMFGCPNNR | inactive
VQRISTIMINV | inactive

Substance | amyloid nucleation score
YYQLKSHVVRDGHVWTICGS | inactive
EFMKGFAWISMFNLRSVLNS | inactive
CEKDRMNLWLTRDG | inactive
IKVTIYPRLTRSNATFMPSM | inactive
SSLRR | inactive
NRYLFLIGSA | inactive
SEVGMVSLRLFWLWWVTKPK | inactive
LIYMLCYFRLLPTCGQVINR | inactive
SDYYMENISFCENMRDILFS | inactive
NEALSERQYRAMLTETLVAG | inactive
HIKKRYKLLAMLLMSDLR | inactive
IFCST | inactive
SKCEMMRTLEESDDVSFVVK | inactive
LGVWRGIGPWRWAKKRWRVA | inactive
NDSSQLLITI | inactive
DSLAVFNNVRRSMTVSRSAA | -0.89 ± 1.3
SVTLLFLKLYIR | inactive
TFWKKGMPGIIYRYFYLF | inactive
DYVNRCI | inactive
LPICVVMDKRFCTIVISSST | inactive
LCWVNQVREMGRWNTGVQSG | inactive
QYYFSYSINSRLITCALVQG | 0.214 ± 0.37
HRSISLRLYWNIHVKCFLTY | inactive

Substance | amyloid nucleation score
KFHWWDTCTDVKSRLKVDVE | inactive
IGGRKALAALSVYHNVMRCL | inactive
GFSGPSLGQIAG | inactive
RDTYMGREVCFNNTPERF | 0.21 ± 0.77
YDNLTARESSYFIFFCFLVY | inactive
TDMHGFNNIS | inactive
LSDGSHLSECYGFT | inactive
RNLYSIRANMWLNRQLRKYS | inactive
NVIMCLRCQY | 2.03 ± 0.1
DSGKC | -0.165 ± 0.33
VTVMT | inactive
AEWLSCLRWIGK | inactive
VYHWFWMQRLNGWFENQQRK | inactive
QAQIYWM | inactive
AYMRHFF | inactive
WIKLNLTYAHWWNMV | inactive
FNWLGLGLMLGIDRDRCDNV | inactive
IIFIF | 1.3 ± 0.14
ACFEAICGYSTLSQ | inactive
APLYTANAMHSRCILSWVFL | 2.25 ± 0.082
ASMYIMFTTVNKILFIEISD | 1.69 ± 0.056
FYMLMISSQYFVTRLAPYFP | -0.015 ± 0.87
DFTYEL | inactive

Substance | amyloid nucleation score
VLASSKGICPMPSTSEFSFH | inactive
LREYFMFPRVHNLFNLV | inactive
VPTVRLTSSSFL | inactive
CKSNKCSAVMVLVA | inactive
TVSGNKYISDRVQN | inactive
FDWIQDHSQCGIIFTCVKLG | inactive
QKLVMTYPVIVHNMVNLERY | 1.13 ± 0.074
RQHLFRSWEVQMSLSLDF | -0.379 ± 0.63
FSLLCFRSWANPIVTMYKYY | inactive
MSIIKKIG | inactive
YDSVNLSLVLHSKRHYAYCA | inactive
TPYVTGTTEAVKMQHRCNVD | -0.188 ± 0.87
SMEIGLGVEIYDVMRFGERM | inactive
NWAGRLWLTV | inactive
FWCIYS | inactive
TECMGGGSVWTQW | inactive
VIRRHWR | inactive
GLHVTCGRDYHGWMGDCSMA | inactive
WFFLGFVLIIKWLGLHQYSF | inactive
MMSMNMNLSYCYGFMGSHYS | 1.47 ± 0.097
LLFEMWTWSTVSRRAGDVLS | inactive
SQYTRCSVYIVW | 1.43 ± 0.079
SGMLKRFSALRGISASVVGV | inactive

Substance | amyloid nucleation score
SFLHTQSAKDTFVHNAVTYT | inactive
TACLSVQMWFRFSVFSGVYL | inactive
FMMFIL | 1.42 ± 0.1
KALTRRIILHWK | 0.711 ± 0.28
DFTDYMPIMYTLHRVVIQMY | inactive
YDLTFVGWMDYCNLPMVRLI | inactive
VFVSS | -0.36 ± 1
HGDVCMNMGYNRT | inactive
SLDSYDTDLKGVCCQVFCIK | 3.24 ± 0.062
FICVAIGTFCFIEMMHLIGR | 1.23 ± 0.086
HPSVVLHGEATCTASRVLQV | inactive
SSWYSRAPWLRVEMRRKWYM | 0.025 ± 0.61
NLNYWAFDYADKLIEHSCVR | inactive
FTPLCSNVAGRNMEQYCS | inactive
TTFNRFVYPYGERYLG | inactive
VFLKTVAKQFCLANVKRSH | inactive
WSCESNDVHSCWWWLGGFNT | inactive
CDLWIHWS | inactive
YSFDASTYIYVSGRLFNKSV | inactive
ANMCNCKAIHRFNKFNICSR | inactive
YSVWVGLCVYSDGYRYNMPE | 2.06 ± 0.062
FASYYHTVDRADFDDLDPAN | inactive
KFILFRVSVKGIRRFQVGR | 1.47 ± 0.14

Substance | amyloid nucleation score
YFEVSLIRLYHEKTTTRMVY | inactive
CWYLVLSRLLCKNSRLHSNR | inactive
TTEDLSVG | inactive
YSNVNALISSTSLYLCCCML | 0.644 ± 0.23
FFSDTYSNTSPM | inactive
LNATKSDCHSLLI | inactive
YHLDFMMGINSFRRVKAEPG | inactive
TLSVLFSVSAAAFGVHRIQD | 1.09 ± 0.21
STHFRCELQRICF | inactive
AEVPEFTLYVSFYSWVYFRL | inactive
WILSYLDNCARSRQ | inactive
KLVFTIRVF | inactive
SGLIQNTRR | -0.428 ± 1.1
RWNIS | 0.28 ± 0.22
PCECTNHLACDNIPMRYTE | inactive
GLDGTGHKYDGQFARRWNLR | inactive
GCGPLNFSVESHQCLKS | inactive
HVFIEFGKL | -0.259 ± 0.42
YNGLVGLSNPCTIWESGWVW | inactive
IVSLALSFFLDHSQVFCLNS | 1.36 ± 0.15
IARFGVKSVGWSFAENMSST | inactive
AVSLCSDLYFVFGKWFGCEL | 1.11 ± 0.11
MIFRAQDSYGPLYT | inactive

Substance | amyloid nucleation score
SFVKWVKNQHF | inactive
SHSWQLSYSKSRYVIDAIAR | inactive
LGHYAKPLSSVQQNRTNMGA | inactive
GREFRICNSFVWVSVFIFCG | inactive
INFTRSQYRFLIWYASQKMS | inactive
LRWSGFIGDAYGYLFKEWGQ | 0.145 ± 0.33
MKRGDDLHTLFITSVPKSGY | inactive
WDYGKWE | inactive
SQVGWG | inactive
DKCRVCISFC | 1.14 ± 0.13
YKNKTSNMLICNAF | inactive
WTKECISIGRTWIYRRVGRG | 0 ± 0.59
SKMRRSFCPIWFSRWSFLST | inactive
WPLTCCDFSPSDSAIGRM | inactive
LPTSQA | inactive
SRNPEAEHRIIMRAQSTGYF | inactive
SDQSCGDIMMELFWQM | inactive
FCCINKLDGLGVWETYCSYS | inactive
DMLHLWYLSVG | inactive
ACYNSKRMGGMYNSRVLDHD | inactive
LPYTGIYSRFRDRLWCVLKT | inactive
SGVRANFDFLASVAAHPLNS | inactive
SVSTGVKIACTPTIVDRQLG | inactive
